In article PMC2174231 (The Journal of Cell Biology, 1999):

T1: PML wild-type fused to GAL4-DBD (UniProt P29590 1-882)
T1 sequence: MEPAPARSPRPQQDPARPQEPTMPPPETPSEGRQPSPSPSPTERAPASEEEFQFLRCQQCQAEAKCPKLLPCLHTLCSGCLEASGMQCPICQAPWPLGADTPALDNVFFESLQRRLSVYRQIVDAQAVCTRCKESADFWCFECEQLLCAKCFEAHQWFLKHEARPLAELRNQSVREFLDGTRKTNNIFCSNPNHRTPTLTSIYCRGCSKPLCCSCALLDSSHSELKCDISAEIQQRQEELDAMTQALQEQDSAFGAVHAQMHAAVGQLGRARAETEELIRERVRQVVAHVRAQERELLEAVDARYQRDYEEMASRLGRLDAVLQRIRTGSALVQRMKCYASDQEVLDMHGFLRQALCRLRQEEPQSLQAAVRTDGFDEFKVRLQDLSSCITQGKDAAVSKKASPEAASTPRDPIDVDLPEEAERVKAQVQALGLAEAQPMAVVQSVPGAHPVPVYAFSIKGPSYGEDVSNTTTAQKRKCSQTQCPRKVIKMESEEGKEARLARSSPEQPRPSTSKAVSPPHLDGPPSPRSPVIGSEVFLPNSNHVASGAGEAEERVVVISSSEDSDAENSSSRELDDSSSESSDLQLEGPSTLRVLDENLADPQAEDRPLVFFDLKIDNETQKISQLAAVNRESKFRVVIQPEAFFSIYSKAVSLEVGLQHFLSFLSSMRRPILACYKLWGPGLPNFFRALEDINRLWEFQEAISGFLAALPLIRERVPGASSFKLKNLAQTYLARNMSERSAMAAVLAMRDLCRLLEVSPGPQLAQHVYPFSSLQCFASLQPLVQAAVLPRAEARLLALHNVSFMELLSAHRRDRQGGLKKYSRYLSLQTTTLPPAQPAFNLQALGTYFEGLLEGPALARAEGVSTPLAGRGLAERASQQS

B1: Daxx amino acids 433-740 fused to NLS-VP16 (domain or fragment)
chain: AETDDEDDEESDEEEEEEEEEEEEEATDSEEEEDLEQMQEGQEDDEEEDEEEEAAAGKDGDKSPMSSLQISNEKNLEPGKQISRSSGEQQNKGRIVSPSLLSEEPLAPSSIDAESNGEQPEELTLEEESPVSQLFELEIEALPLDTPSSVETDISSSRKQSEEPFTTVLENGAGMVSSTSFNGGVSPHNWGDSGPPCKKSRKEKKQTGSGPLGNSYVERQRSVHEKNGKKICTLPSPPSPLASLAPVADSSTRVDSPSHGLVTSSLCIPSPARLSQTPHSQPPRPGTCKTSVATQCDPEEIIVLSDSD
B2: Daxx amino acids 625-740 fused to NLS-VP16 (domain or fragment)
chain: SGPPCKKSRKEKKQTGSGPLGNSYVERQRSVHEKNGKKICTLPSPPSPLASLAPVADSSTRVDSPSHGLVTSSLCIPSPARLSQTPHSQPPRPGTCKTSVATQCDPEEIIVLSDSD
B3: Daxx amino acids 488-740 fused to NLS-VP16 (domain or fragment)
chain: AGKDGDKSPMSSLQISNEKNLEPGKQISRSSGEQQNKGRIVSPSLLSEEPLAPSSIDAESNGEQPEELTLEEESPVSQLFELEIEALPLDTPSSVETDISSSRKQSEEPFTTVLENGAGMVSSTSFNGGVSPHNWGDSGPPCKKSRKEKKQTGSGPLGNSYVERQRSVHEKNGKKICTLPSPPSPLASLAPVADSSTRVDSPSHGLVTSSLCIPSPARLSQTPHSQPPRPGTCKTSVATQCDPEEIIVLSDSD

Target: T1, PML wild-type fused to GAL4-DBD
Experiment: two-hybrid

Binder | fold weaker interaction (β-galactosidase) against Daxx 488-740 | fold strength of interaction (β-galactosidase) against full-length Daxx
B1 | ~20 fold weaker | 
B2 |  | ~3 fold
B3 |  | ~3 fold
